These results are taken from the DeepSol protein solubility set.

The nature of the series: soluble on expression in E. coli; label from the status in PepcDB or PDB records.
Take “MVLLSVFLATGCTDTEQQPDTTTITEPDTTTTAQSETSKLIVSTTTSLEDTGLLEEIEAAFEDKYPGVDVLVISGGTGIAIQYGERGDADILLTHDKSREEEFVNNGFGTNRTEIAYNYFWIVGPENDPAGINGLNATEAFTRIMEEGQNDSDQVKFASRGDDSGTHAREKKIWESTGVSYGEINSSGEWYIESGRGMGETLLLSNEQNAYTLTDSGTFLAYTNEGRIQIVPIVTAGDELLNVYAAMPVNPEKHPNVNYEGAQNFVDFLVSSEGQEIIGNFGREQYGEPLFTPISEGLPS”: the “soluble on expression in E. coli” value is “not soluble”.
Then “MSLGYNFHLSDMQAQLEQQAAEEETLKQQFSTKAFQAANLEAYKAQMKEMEESFGALLRQLPSDTEVPGLLEDITRTGLGSGLEFEEIKLLPEVAQQFYIELPIQISVVGGYHDLATFVSGVSSLPRIVTLHDFEIKPVAPGSTSKLRMSILAKTYRYNDKGLKKEGHHHHHH”, with “soluble”; and “MAEANPRRGKMRFRRNAASFPGNLHLVLVLRPTSFLQRTFTDIGFWFSQEDFMPKLPVVMLSSVSDLLTYIDDKQLTPELGGTLQYCHSEWIIFRNAIENFALTVKEMAQMLQSFGTELAETELPDDIPSIEEILAIRAERYHLLKNDITAVTKEGKILLTNLEVPDTEGAVSSRLECHRQISGDWQTINKLLTQVHDMETAFDGFWEKHQLKMEQYLQLWKFEQDFQQLVTEVEFLLNQQAELADVTGTIAQVKQKIKKLENLDENSQELLSKAQFVILHGHKLAANHHYALDLICQRCNELRYLSDILVNEIKAKRIQLSRTFKMHKLLQQARQCCDEGECLLANQEIDKFQSKEDAQKALQDIENFLEMALPFINYEPETLQYEFDVILSPELKVQMKTIQLKLENIRSIFENQQAGFRNLADKHVRPIQFVVPTPENLVTSGTPFFSSKQGKKTWRQNQSNLKIEVVPDCQEKRSSGPSSSLDNGNSLDVLKNHVLNELIQTERVYVRELYTVLLGYRAEMDNPEMFDLMPPLLRNKKDILFGNMAEIYEFHNDIFLSSLENCAHAPERVGPCFLERKDDFQMYAKYCQNKPRSETIWRKYSECAFFQECQRKLKHRLRLDSYLLKPVQRITKYQLLLKELLKYSKDCEGSALLKKALDAMLDLLKSVNDSMHQIAINGYIGNLNELGKMIMQGGFSVWIGHKKGATKMKDLARFKPMQRHLFLYEKAIVFCKRRVESGEGSDRYPSYSFKHCWKMDEVGITEYVKGDNRKFEIWYGEKEEVYIVQASNVDVKMTWLKEIRNILLKQQELLTVKKRKQQDQLTERDKFQISLQQNDEKQQGAFISTEETELEHTSTVVEVCEAIASVQAEANTVWTEASQSAEISEEPAEWSSNYFYPTYDENEEENRPLMRPVSEMALLY”, with “soluble”.
Then “MALLTKVTWNNIGMHQPQTNWYKGVWFPYSTPKYSFLLWLTIQNRLSTGDHIKAWNSGQQVTCTLCGNAEETRNLLFFSCHYTSEVWRTLTQRLLSNDYSRDWNRLLPLLCNTNMPTDLLFLFRYVFQASVYHIWRERNARRHGEISSPPNRLIKFIDKNVRNRINSIRDTGDHNYNACLQLWFSTRPLSSTHSL”, with “soluble”.
Next, “MYTNRWEGLDEFVAVAECGQFTAAALRLGVSSSHVSRQIVRLEERLQTRLLYRSTRKVALTEAGQTFLHHCQRLQDGREEALRAVGDLASEPKGLLRMTCAVAYGERFITPLVTRFMELYPQLRVDIELSNDTLDLVHEGMDLAIRLGRLQDSRMVATRLAPRQMYLCASPSYLERYGRPHSLSELSRHNCLIGGSDTWQLQQNGREFSQRVQGNWRCNSGQAVLDAALQGVGLCQLPDYYVQKHLKEGALVSLLEAHQPPNTAVWALYPQQRHLSPKVRKLVDYLKEGLAMQDEYRQ”: “not soluble”.
Consider “MSKSGVPRLLTASERERLEPFIDQIHYSPRYADDEYEYRHVMLPKAMLKAIPTDYFNPETGTLRILQEEEWRGLGITQSLGWEMYEVHVPEPHILLFKREKDYQMKSQQRGG”, for which the “soluble on expression in E. coli” value was “soluble”.
As to “KRRLEVKGEVNSITVYDDFAHHPEAILATLTALRDKVGGGVRILAVLEPRSNTMKMGVHKDDIAPALGRADAVFMLQPEQLSWEVADIANQCVQPAYWNANLDRLVDMIVAKAQPTDHILVMSNGSFGGIHQKILDKLKLK”, the “soluble on expression in E. coli” value is listed as “not soluble”.
Next, “MGSDKIHHHHHHALGGCGLVPKQPITQQPMTALPPMPPQAQSPGSIFNPGYAGRPLFEDQRPRNVGDILTIVIQENVNATKSSGANANRSGNTNFNVPTAGFLGGLFGKTNLSATGANVFSGTGGANASNTFNGTITVTVTGVLPNGNLMVSGEKQMLINQGDEFVRFSGVVNPNTISNLNAVYSTQVADAKIEYSAKGYLNEAENMGWLQRFFLNVSPW”: “not soluble”.
Then “PSTLELLKDVHLGLPVPCHDPARLALLSGHYLYYHYGCDGLDDRGWGCGYRTLQTLCSWPGGQSSGVPGLPALQGALEAMGDKPPGFRGSRNWIGCVEASLCLEHFGGPQGRLCHLPRGVGLRGEEERLYSHFTTGGGPVMVGGDADAQSKALLGICEGPGSEVYVLILDPHYWGTPKNRCELQAAGWVGWQKVKSVFDSNSFYNLCFTRLEHHHHHH”, with “soluble”; and “MSLKDFAGRTAFVTGGANGVGIGLVRQLLNQGCKVAIADIRQDSIDKALATLEAEGSGPEVMGVQLDVASREGFKMAADEVEARFGPVSILCNNAGVNLFQPIEESSYDDWDWLLGVNLHGVVNGVTTFVPRMVERVKAGEQKGGHVVNTASMAAFLAAGSPGIYNTTKFAVRGLSESLHYSLLKYEIGVSVLCPGLVKSYIYASDDIRPDALKGEVKPVDKTAVERLAGVHEFGMEPDVIGARVIEAMKANRLHIFSHPDHKEELREVFDEIIAEYQDYPKDPGYDQRVAFEKFRADSFAEARRQSRAADEGHHHHHH”, with “soluble”; and “IHPVDSSERVLILGAGRTAEALVRDMRRTGAFVPVGFIDDAVYLRGAKIQGLNVLGRLEEVSTIARETAAKLLVIAIPSLDAAGMQRVVAMCESTGLPFRMVPKLIDVLEGRTLPCQLKEVSIEDLLNRKPVIPDWRLIRSWLSG”, with “not soluble”.
In the case of “MGSDKIHHHHHHMNLKNTKAGFLLSAEHEKLPIAELNALIDIFSLEGNLNCFKNYVILDSSISEEIIKKMVKRGGYTNEGHVIFSESPIINQNVDETLENFFKSSETLDFPVERDETFAVRVLKLEKESPFNSMEIERKLGGIIKKKTSAQVSLKNPSKTVKVVISNDKMYTGIVIEKRDVEYFQNNRPHLRAYFHPGCIMPKLARCLVNLSRVKEGEIVLDPFCGTGGFLIEAGFLGCKLIGSDIDEQMVNGALLNLNTYDLSKQVISIKENDAKNVSKYLEALKIEKIDGIVTDPPYGISTSKKGDMLEIFEKIVDVLKDNDYLVFAAPNKMELDLNLVEFYEMRVHKSLTRYIHVYRKN”, the “soluble on expression in E. coli” value is “not soluble”.
Next, “MGSDKIHHHHHHMKGIISLIHGGKTFVDQIHSACQDAGIELYVISSNTVDADLLQNMSDKATVLEVIEGTDLNFESVLSFVEKLQQSNKQALACISVWENYRPLMARLNQALGAQDMCPEQVNLLRDKHLLRKVLYDAGLSQVNSRILTQEVFIQIQKNRELAFVKPRQGIASYGAFKLRPSTQWQQITEIAEQIQSDAVFSSSFADEVEFVAEDYISGVEFCFEIIHHDGQCNLIAIHEKLEVGEQNLTTLENVSASPPISLNRKQIEQANLWVSSIFERLELGSGCYHLEAKFDNNQWEVIEINPRIGGSYINESVAHVAGYSLLELWIRSLLRAGCSEYQAFLKVLSPHSEQFFERQQGSYFRVFFAEPNRTISRLNFKLGTPPIHKKLLMKEGQTTPNASRELFMAQALWSWSVSQDSVQTRAQISESLTALEVEYE”: “not soluble”.
On to “MTSQTAFDLIFRNTLLRSSAAPVDIGVKGGRIAAIEPGLTCEAVEVDVGGHLALPGFVDTHIHLDKACLLGRCGHNHGSVSEAIRAVAGMKKDFTVEDVYARGARVLERAIVHGTTRMRTHVEIDPRIGLRGFEAVKALKRDYAWAIDLSLCVFPQEGLTNDPGAEDLLIQALRDGGETIGGCPYMDTDPNTHLERIFNLAQEFDVDVDLHLDFDLDPSWWHLDEVCRQTERRNYGGRVAVGHATKLSALPPEPLKAATAQLAKAGVAVTVLPATDLYLMGREATHNAPRGLTLAHKLAGDGVLCSVATNNVLNPFTPFGDASLLRMANFYANVAHASVSDFDICLDLVTELPARLMNLGDYGIKVGNPADLIVLDTQDSRFAIAELPDVMMGFKAGRQTFARQRPTLFSPGR”, for which the “soluble on expression in E. coli” value was “soluble”.
For “MSLTHTVHLHLEETDNLALQRLCGSFDNNLDLLAKALDIHISRRFEHFTFNGAFAHAGKRALLKLLETAQTRDLNDGDIRLAAVEAQTEDAGHQEKNHDHAYYFRTKRGSIGGRTPRQNGYIRALLNHDIVFGLGPAGTGKTYLAVAAAVDAMEKHQVERIILVRPAVEAGEKLGFLPGDLTQKVDPYLRPLYDALYDLMGFDRVTKLIEKGLIEIAPLAYMRGRTLNGAYIILDEAQNTTPEQMKMFLTRIGFGAKAVITGDTSQIDLPKNIKSGLKDAREKLHNVEGLYFHTFTGEDVVRHPLVQKIVEAYESAEHDEGGSHHHHHH”, the “soluble on expression in E. coli” value was “soluble”.
Take “MGSDKIHHHHHHMAQIKPISGAEDRVLLAEALPLVSPFTLNVFPTNACNFKCSYCAQSLGAEALAATYGMDRGFMSLETMELIVEQSKAFAPYKLLSFMGHGEPLLNRDLPKMISLAARAGIAQRIEIITNASMLTHEYADELIDSGLTNLRVSLQGLDMESYRKICGVALDFDRFMERLVYFYTHKKKDMGLFVKIMDVSLPIGGAKEFYKLFNNICDRMYVENVQPVYHAVDVHSSNGSDLTRYDRYGNAHPPRTVCPLAFFSLAVWPNGDVQPCDAIYKPCVLGNVHNTNLREMWDSELLKQFRIRHLRGEKEIITGCSNCCAPDDVSHPLDALDDRKDEILCRLFG”: the “soluble on expression in E. coli” value was “not soluble”.
Next, “SQEKVSIEQQLAVESIRKFLNSKTSYDVLPVSYRLIVLDTSLLVKKSLNVLLQNSIVSAPLWDSKTSRFAGLLTTTDFINVIQYYFSNPDKFELVDKLQLDGLKDIERALGVDQLDTASIHPSRPLFEACLKMLESRSGRIPLIDQDEETHREIVVSVLTQYRILKFVALNCRETHFLKIPIGDLNIITQDNMKSCQMTTPVIDVIQMLTQGRVSSVPIIDENGYLINVYEAYDVLGLIKGGIYNDLSLSVGEALMRRSDDFEGVYTCTKNDKLSTIMDNIRKARVHRFFVVDDVGRLVGVLTLSDILKYILLGS”: “soluble”; “MGSDKIHHHHHHMTLKDIAEMAGVSTMTVSNVINGKTSRVSQKTRDKINSIIEEYNYVPNMNARSLSNNSSHIIGVVTFLEEKEYASGYNYFENPYVSTMIGTIETELHKNGYFTMLQSVSRSSDILSLVKNWNVDGMILVFPTSAQNLEKLMDAANCPIATFDSNYSHPNLINVISDDEKGLYLSTKYMINHGHTEIAFVADYEGNIVLTKRFNGYKKALEDSHIPFRPEYIFSYPPSYEGGIEAGRAIAGSKSPITAVVTTADICAIGIMEGARLGGYRVPIDLSVIGYDNLNLCQYTVPKLTSVSQNVPKKARLATELLLKKIHDNESDSNLGEIIDVEIVDRQSVISLY”: “not soluble”.
In the case of “MGSDKIHHHHHHMSDALLNAGRQTLMLELQEASRLPERLGDDFVRAANIIIHCEGKVIVSGIGKSGHIGKKIAATLASTGTPAFFVHPAEALHGDLGMIESRDVMLFISYSGGAKELDLIIPRLEDKSVALLAMTGKLHSPLGRAAKAVLDISVEREACPMHLAPTSSTVNTLMMGDALAMAVMQARGFNEEDFARSHPAGALGARLLNNVHHLMRQGDAIPQVMLATSVMDAMLELSRTGLGLVAVCDEQHVVKGVFTDGDLRRWLVGGGALTTPVSEAMTPNGITLQAQSRAIDAKELLMKRKITAAPVVDENGKLTGAINLQDFYQAGII”, the “soluble on expression in E. coli” value is “not soluble”.
Next, “GPGSMITDSHIMRLVTDGRMEMFPAVPPPSADGNGVVMLSCYQRGPLLPPTPPRPSSGRNDRIMWDSWQTRPVPQYRGNPETKTQRGVADWQHVPFACPFLRPVVTDVDRAVRGGNATRWLPTPFVGPQVFTVKDKSAGGVLVEQKEAPSSSTS”: “not soluble”.
